The text below walks through data of patent publication US6116237A, “Methods of dry powder inhalation” (priority 1997, dated 2000).

The data set can be described thus: Systemic delivery of calcitonin as model peptide following dosing with the Spiros system, compared to subcutaneous injection. The class given is in vivo. Conditions: calcitonin/lactose blend, estimated. The source says:
5. Using calcitonin as a model peptide for systemic delivery, the bioactivity following dosing with the Spiros system has been estimated to be greater than 20% compared to a subcutaneous injection.

Take calcitonin: the “bioactivity following dosing with the Spiros system compared to a subcutaneous injection (systemic availability)” value is listed as “greater than 20%”.
